{"source": "paper PMC11134719", "key": {"[1]": {"target": "angiotensin-converting enzyme 2 (ACE2) (human (endogenous in HUVECs and HMEC-1)) (UniProt Q9BYF1)", "sequence (Q9BYF1 18-805)": "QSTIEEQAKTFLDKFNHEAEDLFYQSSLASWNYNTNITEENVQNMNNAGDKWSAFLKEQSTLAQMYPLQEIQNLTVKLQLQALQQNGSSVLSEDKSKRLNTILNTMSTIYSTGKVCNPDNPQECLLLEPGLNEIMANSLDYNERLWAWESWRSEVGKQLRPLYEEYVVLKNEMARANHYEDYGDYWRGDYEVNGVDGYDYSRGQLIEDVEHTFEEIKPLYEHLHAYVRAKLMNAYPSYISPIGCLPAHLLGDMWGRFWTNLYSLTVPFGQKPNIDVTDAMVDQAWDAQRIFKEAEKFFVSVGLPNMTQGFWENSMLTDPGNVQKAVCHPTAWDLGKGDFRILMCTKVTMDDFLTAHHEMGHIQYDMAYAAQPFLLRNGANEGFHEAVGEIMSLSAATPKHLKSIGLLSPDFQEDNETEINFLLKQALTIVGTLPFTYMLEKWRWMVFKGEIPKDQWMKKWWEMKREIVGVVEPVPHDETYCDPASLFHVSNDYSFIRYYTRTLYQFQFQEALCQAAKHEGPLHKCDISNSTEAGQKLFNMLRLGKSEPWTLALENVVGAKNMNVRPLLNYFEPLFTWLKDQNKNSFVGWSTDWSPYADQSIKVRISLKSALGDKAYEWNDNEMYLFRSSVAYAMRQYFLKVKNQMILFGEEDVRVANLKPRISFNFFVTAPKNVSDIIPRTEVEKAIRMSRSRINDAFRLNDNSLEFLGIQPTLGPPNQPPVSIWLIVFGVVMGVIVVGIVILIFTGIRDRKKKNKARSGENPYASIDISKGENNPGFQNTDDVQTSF"}, "[2]": {"target": "Toll-like receptor 4 (TLR4) (human (endogenous in HUVECs and HMEC-1)) (UniProt O00206)", "sequence (O00206 24-839)": "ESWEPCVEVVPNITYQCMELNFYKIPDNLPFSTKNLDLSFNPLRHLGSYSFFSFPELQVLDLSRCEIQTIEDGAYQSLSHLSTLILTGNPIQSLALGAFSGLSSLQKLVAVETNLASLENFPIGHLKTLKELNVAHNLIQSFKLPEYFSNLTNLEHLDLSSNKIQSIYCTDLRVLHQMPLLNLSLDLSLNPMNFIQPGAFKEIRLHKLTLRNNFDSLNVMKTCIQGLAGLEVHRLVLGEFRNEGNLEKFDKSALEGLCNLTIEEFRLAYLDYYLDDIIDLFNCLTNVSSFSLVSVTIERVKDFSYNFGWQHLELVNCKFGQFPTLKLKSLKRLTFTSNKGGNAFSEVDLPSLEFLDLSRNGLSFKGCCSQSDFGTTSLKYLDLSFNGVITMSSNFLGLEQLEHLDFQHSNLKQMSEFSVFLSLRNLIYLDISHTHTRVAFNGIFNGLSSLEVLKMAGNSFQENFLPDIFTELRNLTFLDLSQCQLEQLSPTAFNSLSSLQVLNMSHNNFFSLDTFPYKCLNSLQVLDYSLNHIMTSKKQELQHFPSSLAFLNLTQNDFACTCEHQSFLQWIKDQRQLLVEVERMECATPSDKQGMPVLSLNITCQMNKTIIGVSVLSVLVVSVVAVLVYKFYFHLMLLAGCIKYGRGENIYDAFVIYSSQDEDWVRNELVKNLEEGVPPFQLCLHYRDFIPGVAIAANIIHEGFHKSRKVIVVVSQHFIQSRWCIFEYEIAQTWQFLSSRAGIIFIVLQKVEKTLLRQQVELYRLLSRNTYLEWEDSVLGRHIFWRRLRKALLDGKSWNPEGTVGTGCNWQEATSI"}}}
{"substance": "2019-nCoV S1 Protein (SARS-CoV-2 Spike protein) (domain or fragment)", "values": [{"measurement": "decrease of the ACE2 surface protein level (Western blot of the cell surface fraction), 0.5 µg/mL S protein for 48 h", "setting": "[1]", "value": 60, "unit": "%"}, {"measurement": "TLR4 surface protein level by Western blot, fold over nontreated endothelial cells, 0.5 µg/mL S protein for 48 h", "setting": "[2]", "value": 1.7, "unit": "fold"}, {"measurement": "TLR4 surface protein level by immunostaining, fold over nontreated endothelial cells, 0.5 µg/mL S protein for 48 h", "setting": "[2]", "value": 1.4, "unit": "fold"}]}
